Reference: article PMC10245121, “GH20 and GH84 β-N-acetylglucosaminidases with different linkage specificities underpin mucin O-glycan breakdown capability of Bifidobacterium bifidum” (The Journal of Biological Chemistry, 2023)

How the values were obtained:
[1] = molecular target: BbhV (GH84 β-N-acetylglucosaminidase of Bifidobacterium bifidum JCM 1254), residues 35-1111, C-terminal His6 (Bifidobacterium bifidum JCM 1254); test: SEC; Superdex 200 Increase 10/300 GL; 10 mM Tris-HCl pH 8.0, 150 mM NaCl; native mass estimated against thyroglobulin, ferritin, aldolase and conalbumin standards
BbhV = molecular target: T1, BbhV (Bifidobacterium bifidum, UniProt A0ABN5UYD8); test: initial velocities, p-nitrophenolate release ([…] nm), Michaelis-Menten fit; format: biochemical; conditions: 0.1-5.0 mM substrate; McIlvaine buffer, pH optimum 5.5 (pH and temperature of the kinetics not stated)
T1 construct: gene BBBF_1623; residues 35-1111 of 1139 aa, signal peptide and C-terminal TM region removed, C-terminal His6 tag kept; E. coli; 171 kDa by SEC, dimer
T1 sequence (A0ABN5UYD8 entry or part of it): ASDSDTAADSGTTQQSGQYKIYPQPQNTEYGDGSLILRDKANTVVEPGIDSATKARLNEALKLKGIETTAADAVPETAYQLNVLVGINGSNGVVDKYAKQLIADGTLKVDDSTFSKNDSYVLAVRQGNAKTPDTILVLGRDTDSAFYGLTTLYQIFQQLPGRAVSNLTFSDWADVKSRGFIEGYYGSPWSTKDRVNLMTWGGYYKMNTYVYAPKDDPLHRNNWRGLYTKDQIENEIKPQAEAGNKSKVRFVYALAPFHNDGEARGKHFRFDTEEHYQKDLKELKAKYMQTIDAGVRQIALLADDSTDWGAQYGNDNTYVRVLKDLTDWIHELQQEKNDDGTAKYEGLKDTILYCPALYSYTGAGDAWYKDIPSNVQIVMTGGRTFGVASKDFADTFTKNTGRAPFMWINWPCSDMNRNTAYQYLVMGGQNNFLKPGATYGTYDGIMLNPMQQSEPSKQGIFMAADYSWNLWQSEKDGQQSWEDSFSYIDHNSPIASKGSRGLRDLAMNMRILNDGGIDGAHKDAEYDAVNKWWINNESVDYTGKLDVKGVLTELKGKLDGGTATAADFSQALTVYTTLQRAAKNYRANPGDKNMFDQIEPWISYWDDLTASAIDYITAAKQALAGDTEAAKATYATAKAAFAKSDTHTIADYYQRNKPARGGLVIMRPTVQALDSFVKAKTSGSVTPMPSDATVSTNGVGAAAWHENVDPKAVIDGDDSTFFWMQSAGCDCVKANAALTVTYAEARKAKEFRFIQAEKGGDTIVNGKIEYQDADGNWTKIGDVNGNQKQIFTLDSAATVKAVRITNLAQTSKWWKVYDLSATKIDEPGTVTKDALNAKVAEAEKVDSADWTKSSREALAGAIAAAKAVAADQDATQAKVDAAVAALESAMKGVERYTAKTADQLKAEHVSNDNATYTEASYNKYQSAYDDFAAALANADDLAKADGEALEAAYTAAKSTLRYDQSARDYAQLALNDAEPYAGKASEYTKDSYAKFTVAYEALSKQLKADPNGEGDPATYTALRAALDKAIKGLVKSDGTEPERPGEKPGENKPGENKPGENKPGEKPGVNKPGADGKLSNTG

stoichiometry N [1]	Km (BbhV)	Molecule
2	–	BbhV (GH84 β-N-acetylglucosaminidase of Bifidobacterium bifidum JCM 1254), residues 35-1111, C-terminal His6 (enzyme)
–	1000 µM	CC(=O)N[C@H]1[C@H](Oc2ccc([N+](=O)[O-])cc2)O[C@H](CO)[C@@H](O)[C@@H]1O [GlcNAcβ-pNP]
